Measured values reported in patent publication US20250361288A1 (Gilead, published 2025).

T1: human HVEM extracellular domain fused with an Fc fragment at the C-terminus (human, UniProt Q92956 39-202)
T1 construct: extracellular domain; Bought; also called hHVEM; not shown: Fc fragment at the C-terminus
T1 sequence (looked up): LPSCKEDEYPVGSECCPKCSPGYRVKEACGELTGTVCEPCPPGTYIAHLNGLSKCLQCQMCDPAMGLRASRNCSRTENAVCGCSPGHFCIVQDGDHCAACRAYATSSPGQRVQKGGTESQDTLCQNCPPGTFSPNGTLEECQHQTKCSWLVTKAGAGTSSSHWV

T2: mouse HVEM extracellular domain fused with an Fc fragment at the C-terminus (mouse, UniProt Q80WM9 39-206, limits assumed)
T2 construct: extracellular domain; Bought; also called mHVEM; not shown: Fc fragment at the C-terminus
T2 sequence (looked up): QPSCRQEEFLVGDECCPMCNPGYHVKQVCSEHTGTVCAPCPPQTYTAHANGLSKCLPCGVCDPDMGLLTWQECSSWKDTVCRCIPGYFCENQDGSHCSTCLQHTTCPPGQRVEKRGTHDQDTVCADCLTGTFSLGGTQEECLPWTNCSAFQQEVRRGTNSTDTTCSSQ


Legend:
Test in all cases: phage ELISA
[1] = target: T1, human HVEM extracellular domain fused …
Experimental: (§1) Individual clones from the fourth selection round were grown in 96-well deep well blocks in 100 μl of 2YT broth supplemented with 50 μg/ml ampicillin at 37° C. and 220 rpm for 5 hours. Then, 5 μl of helper phages were added to each well and incubated at 37° C. for 30 minutes. After centrifuging at 3,000 rpm for 10 minutes, the cells were resuspended and grown overnight in 150 μl/well of 2YT broth supplemented with 50 μg/ml ampicillin and 50 μg/ml kanamycin.
(§2) For the ELISA screening, 96-well ELISA plates were coated with target proteins (1 μg/ml in PBS) at 4° C. overnight and then blocked with 2% BSA for 2 hours at room temperature. The supernatant containing phage particles was added to the plates and incubated at room temperature for 1 hour. After incubation, the plates were washed five times with PBST. HRP (horseradish peroxidase) conjugated anti-M13 antibody (Sino Biological, China) was added to the wells and incubated at room temperature for 1 hour. Following another round of washing five times with PBST, 50 μl of TMB (3,3′, 5,5″-tetramethylbenzidine, #34029, ThemoFisher) was added to each well. After 5 minutes, the reaction was stopped by adding 50 μl stop solution (#C1058, Solarbio, China). The absorbance at 450 nm (OD450) was measured using a plate reader (SpectraMax M5, Molecule Devices). Wells coated with BSA were used as negative controls. Phage clones with an ELISA score ratio (target/BSA)>3 were considered positive clones.

[2] = target: T2, mouse HVEM extracellular domain fused …
Experimental: as §1, §2

[3] = target: T3, mouse LTβR extracellular domain fused with an Fc fragment at the C-terminus (mouse, UniProt P50284 31-223)
T3 construct: extracellular domain; Bought; also called mLTβR; not shown: Fc fragment at the C-terminus
T3 sequence (P50284 31-223): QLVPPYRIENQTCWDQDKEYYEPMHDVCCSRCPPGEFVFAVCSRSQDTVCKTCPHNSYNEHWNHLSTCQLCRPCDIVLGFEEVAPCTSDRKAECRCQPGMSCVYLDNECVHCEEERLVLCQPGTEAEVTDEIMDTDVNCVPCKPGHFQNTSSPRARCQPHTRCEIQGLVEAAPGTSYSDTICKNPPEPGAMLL
Experimental: as §1, §2

[4] = target: T4, human LTβR extracellular domain fused with an Fc fragment at the C-terminus (human, UniProt P36941 31-227)
T4 construct: extracellular domain; Bought; also called hLTβR; not shown: Fc fragment at the C-terminus
T4 sequence (P36941 31-227): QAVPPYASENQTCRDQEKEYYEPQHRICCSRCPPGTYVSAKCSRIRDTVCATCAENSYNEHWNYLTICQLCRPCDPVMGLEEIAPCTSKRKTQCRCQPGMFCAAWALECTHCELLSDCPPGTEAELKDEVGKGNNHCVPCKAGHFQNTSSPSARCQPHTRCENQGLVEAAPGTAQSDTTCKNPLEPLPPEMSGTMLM
Experimental: as §1, §2

| Binder | binding result [1] | binding result [2] | binding result [3] | binding result [4] |
| --- | --- | --- | --- | --- |
| LIGHT-4 (ligand, Printed mutations: V152M, T161P, R228L; Soluble protein carries an N-terminal His tag) DGPAGSWEQLIQERRSHEVNPAAHLTGANSSLTGSGGPLLWETQLGLAFLRGLSYHDGALVVTKAGYYYIYSKVQLGGMGCPLGLASPITHGLYKRTPRYPEELELLVSQQSPCGRATSSSRVWWDSSFLGGVVHLEAGEKVVVRVLDERLVRLLDGTRSYFGAFMV | no binding | binds | binds | binds |
| LIGHT-6 (ligand, Printed mutations: W198Q, L220N, D221G; Soluble protein carries an N-terminal His tag) DGPAGSWEQLIQERRSHEVNPAAHLTGANSSLTGSGGPLLWETQLGLAFLRGLSYHDGALVVTKAGYYYIYSKVQLGGVGCPLGLASTITHGLYKRTPRYPEELELLVSQQSPCGRATSSSRVWQDSSFLGGVVHLEAGEKVVVRVNGERLVRLRDGTRSYFGAFMV | no binding | binds | binds | binds |
| LIGHT-8 (ligand, Printed mutations: G150S, S160G, L220S; Soluble protein carries an N-terminal His tag) DGPAGSWEQLIQERRSHEVNPAAHLTGANSSLTGSGGPLLWETQLGLAFLRGLSYHDGALVVTKAGYYYIYSKVQLSGVGCPLGLAGTITHGLYKRTPRYPEELELLVSQQSPCGRATSSSRVWWDSSFLGGVVHLEAGEKVVVRVSDERLVRLRDGTRSYFGAFMV | no binding | binds | binds | binds |
| LIGHT-13 (ligand, Printed mutations: S104P, G157S, H208Y, L220R; Soluble protein carries an N-terminal His tag) DGPAGSWEQLIQERRSHEVNPAAHLTGANSPLTGSGGPLLWETQLGLAFLRGLSYHDGALVVTKAGYYYIYSKVQLGGVGCPLSLASTITHGLYKRTPRYPEELELLVSQQSPCGRATSSSRVWWDSSFLGGVVYLEAGEKVVVRVRDERLVRLRDGTRSYFGAFMV | binds | binds | binds | binds |
| LIGHT-38 (ligand, Printed mutations: Q184R, W198Q; Soluble protein carries an N-terminal His tag) DGPAGSWEQLIQERRSHEVNPAAHLTGANSSLTGSGGPLLWETQLGLAFLRGLSYHDGALVVTKAGYYYIYSKVQLGGVGCPLGLASTITHGLYKRTPRYPEELELLVSQRSPCGRATSSSRVWQDSSFLGGVVHLEAGEKVVVRVLDERLVRLRDGTRSYFGAFMV | binds | binds | binds | binds |
| LIGHT-43 (ligand, Printed mutations: G150R, S160T, L220S; Soluble protein carries an N-terminal His tag) DGPAGSWEQLIQERRSHEVNPAAHLTGANSSLTGSGGPLLWETQLGLAFLRGLSYHDGALVVTKAGYYYIYSKVQLRGVGCPLGLATTITHGLYKRTPRYPEELELLVSQQSPCGRATSSSRVWWDSSFLGGVVHLEAGEKVVVRVSDERLVRLRDGTRSYFGAFMV | binds | binds | binds | binds |
| LIGHT-44 (ligand, Printed mutations: G150R, L158P, L220S; Soluble protein carries an N-terminal His tag) DGPAGSWEQLIQERRSHEVNPAAHLTGANSSLTGSGGPLLWETQLGLAFLRGLSYHDGALVVTKAGYYYIYSKVQLRGVGCPLGPASTITHGLYKRTPRYPEELELLVSQQSPCGRATSSSRVWWDSSFLGGVVHLEAGEKVVVRVSDERLVRLRDGTRSYFGAFMV | binds | binds | binds | binds |
| LIGHT-49 (ligand, Printed mutations: L105P, Q117R, L220Q; Soluble protein carries an N-terminal His tag) DGPAGSWEQLIQERRSHEVNPAAHLTGANSSPTGSGGPLLWETRLGLAFLRGLSYHDGALVVTKAGYYYIYSKVQLGGVGCPLGLASTITHGLYKRTPRYPEELELLVSQQSPCGRATSSSRVWWDSSFLGGVVHLEAGEKVVVRVQDERLVRLRDGTRSYFGAFMV | binds | binds | binds | binds |
| LIGHT-75 (ligand, Printed mutations: Q117N, S160G, T161P, L220S, L227T; Soluble protein carries an N-terminal His tag) DGPAGSWEQLIQERRSHEVNPAAHLTGANSSLTGSGGPLLWETNLGLAFLRGLSYHDGALVVTKAGYYYIYSKVQLGGVGCPLGLAGPITHGLYKRTPRYPEELELLVSQQSPCGRATSSSRVWWDSSFLGGVVHLEAGEKVVVRVSDERLVRTRDGTRSYFGAFMV | binds |  | binds | binds |
| LIGHT-77 (ligand, Printed mutations: Q117E, S160G, T161P, L220S, L227T; Soluble protein carries an N-terminal His tag) DGPAGSWEQLIQERRSHEVNPAAHLTGANSSLTGSGGPLLWETELGLAFLRGLSYHDGALVVTKAGYYYIYSKVQLGGVGCPLGLAGPITHGLYKRTPRYPEELELLVSQQSPCGRATSSSRVWWDSSFLGGVVHLEAGEKVVVRVSDERLVRTRDGTRSYFGAFMV | binds |  | binds | binds |
| LIGHT-78 (ligand, Printed mutations: Q117N, S160G, T161S, L220S, L227T; Soluble protein carries an N-terminal His tag) DGPAGSWEQLIQERRSHEVNPAAHLTGANSSLTGSGGPLLWETNLGLAFLRGLSYHDGALVVTKAGYYYIYSKVQLGGVGCPLGLAGSITHGLYKRTPRYPEELELLVSQQSPCGRATSSSRVWWDSSFLGGVVHLEAGEKVVVRVSDERLVRTRDGTRSYFGAFMV | binds |  | binds | binds |
| LIGHT-79 (ligand, Printed mutations: Q117E, S160G, T161S, L220S, L227T; Soluble protein carries an N-terminal His tag) DGPAGSWEQLIQERRSHEVNPAAHLTGANSSLTGSGGPLLWETELGLAFLRGLSYHDGALVVTKAGYYYIYSKVQLGGVGCPLGLAGSITHGLYKRTPRYPEELELLVSQQSPCGRATSSSRVWWDSSFLGGVVHLEAGEKVVVRVSDERLVRTRDGTRSYFGAFMV | binds |  | binds | binds |
| LIGHT-80 (ligand, Printed mutations: Q117N, S160G, T161G, L220S, E222S, L227T; Soluble protein carries an N-terminal His tag) DGPAGSWEQLIQERRSHEVNPAAHLTGANSSLTGSGGPLLWETNLGLAFLRGLSYHDGALVVTKAGYYYIYSKVQLGGVGCPLGLAGGITHGLYKRTPRYPEELELLVSQQSPCGRATSSSRVWWDSSFLGGVVHLEAGEKVVVRVSDSRLVRTRDGTRSYFGAFMV | binds |  | binds | binds |
| LIGHT-81 (ligand, Printed mutations: Q117N, S160G, T161P, L220S, E222S, L227T; Soluble protein carries an N-terminal His tag) DGPAGSWEQLIQERRSHEVNPAAHLTGANSSLTGSGGPLLWETNLGLAFLRGLSYHDGALVVTKAGYYYIYSKVQLGGVGCPLGLAGPITHGLYKRTPRYPEELELLVSQQSPCGRATSSSRVWWDSSFLGGVVHLEAGEKVVVRVSDSRLVRTRDGTRSYFGAFMV | binds |  | binds | binds |
| LIGHT-82 (ligand, Printed mutations: Q117E, S160G, T161G, L220S, E222S, L227T; Soluble protein carries an N-terminal His tag) DGPAGSWEQLIQERRSHEVNPAAHLTGANSSLTGSGGPLLWETELGLAFLRGLSYHDGALVVTKAGYYYIYSKVQLGGVGCPLGLAGGITHGLYKRTPRYPEELELLVSQQSPCGRATSSSRVWWDSSFLGGVVHLEAGEKVVVRVSDSRLVRTRDGTRSYFGAFMV | binds |  | binds | binds |
| LIGHT-83 (ligand, Printed mutations: Q117E, S160G, T161P, L220S, E222S, L227T; Soluble protein carries an N-terminal His tag) DGPAGSWEQLIQERRSHEVNPAAHLTGANSSLTGSGGPLLWETELGLAFLRGLSYHDGALVVTKAGYYYIYSKVQLGGVGCPLGLAGPITHGLYKRTPRYPEELELLVSQQSPCGRATSSSRVWWDSSFLGGVVHLEAGEKVVVRVSDSRLVRTRDGTRSYFGAFMV | binds |  | binds | binds |
| LIGHT-85 (ligand, Printed mutations: Q117E, S160G, T161S, L220S, E222S, L227T; Soluble protein carries an N-terminal His tag) DGPAGSWEQLIQERRSHEVNPAAHLTGANSSLTGSGGPLLWETELGLAFLRGLSYHDGALVVTKAGYYYIYSKVQLGGVGCPLGLAGSITHGLYKRTPRYPEELELLVSQQSPCGRATSSSRVWWDSSFLGGVVHLEAGEKVVVRVSDSRLVRTRDGTRSYFGAFMV | binds |  | binds | binds |
